According to US20240360217A1:

Columns and labels:
[1] = target: human PD-L1 on tumor cells (human) (UniProt Q9NZQ7); experiment: FACS staining of MDA-MB-231 cells with the control antibody; triplicates
[2] = target: human PD-L1 on tumor cells (human) (UniProt Q9NZQ7); experiment: FACS staining of HCT116 cells with the control antibody; triplicates

Sequence of human PD-L1 on tumor cells (human) (Q9NZQ7 19-290 limits assumed): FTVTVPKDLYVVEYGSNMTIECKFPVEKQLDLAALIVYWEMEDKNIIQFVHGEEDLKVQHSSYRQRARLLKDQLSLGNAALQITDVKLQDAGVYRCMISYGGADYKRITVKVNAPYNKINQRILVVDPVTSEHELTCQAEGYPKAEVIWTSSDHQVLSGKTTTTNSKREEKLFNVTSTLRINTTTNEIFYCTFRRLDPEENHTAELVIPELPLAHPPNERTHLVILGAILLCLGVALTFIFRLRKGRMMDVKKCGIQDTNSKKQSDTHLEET

**Q.** Which PD-L1 (MFI) [1] does the source give for anti-PD-L1 RG7446 MPDL3280A (antibody) here?
**A.** The PD-L1 (MFI) was 74600 MFI.

**Q.** And the PD-L1 (MFI) [2]?
**A.** The PD-L1 (MFI) was 10900 MFI.
